Results taken from IntAct's records for PubMed 31515488.

B1: Protein-associating with the carboxyl-terminal domain of ezrin (Homo sapiens), Q8IZE3 (parent)
chain: MGSENSALKSYTLREPPFTLPSGLAVYPAVLQDGKFASVFVYKRENEDKVNKAAKHLKTLRHPCLLRFLSCTVEADGIHLVTERVQPLEVALETLSSAEVCAGIYDILLALIFLHDRGHLTHNNVCLSSVFVSEDGHWKLGGMETVCKVSQATPEFLRSIQSIRDPASIPPEEMSPEFTTLPECHGHARDAFSFGTLVESLLTILNEQVSADVLSSFQQTLHSTLLNPIPKCRPALCTLLSHDFFRNDFLEVVNFLKSLTLKSEEEKTEFFKFLLDRVSCLSEELIASRLVPLLLNQLVFAEPVAVKSFLPYLLGPKKDHAQGETPCLLSPALFQSRVIPVLLQLFEVHEEHVRMVLLSHIEAYVEHFTQEQLKKVILPQVLLGLRDTSDSIVAITLHSLAVLVSLLGPEVVVGGERTKIFKRTAPSFTKNTDLSLEDSPMCVVCSHHSQISPILENPFSSIFPKCFFSGSTPINSKKHIQRDYYNTLLQTGDPFSQPIKFPINGLSDVKNTSEDSENFPSSSKKSEEWPDWSEPEEPENQTVNIQIWPREPCDDVKSQCTTLDVEESSWDDCEPSSLDTKVNPGGGITATKPVTSGEQKPIPALLSLTEESMPWKSSLPQKISLVQRGDDADQIEPPKVSSQERPLKVPSELGLGEEFTIQVKKKPVKDPEMDWFADMIPEIKPSAAFLILPELRTEMVPKKDDVSPVMQFSSKFAAAEITEGEAEGWEEEGELNWEDNNW
partner: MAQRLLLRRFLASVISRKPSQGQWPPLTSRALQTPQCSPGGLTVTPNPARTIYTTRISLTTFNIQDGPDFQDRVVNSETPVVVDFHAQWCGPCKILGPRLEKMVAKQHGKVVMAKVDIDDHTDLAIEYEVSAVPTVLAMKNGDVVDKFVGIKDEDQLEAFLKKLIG
B2: G patch domain and ankyrin repeat-containing protein 1 (Homo sapiens), O95872 (parent)
chain: MSRPLLITFTPATDPSDLWKDGQQQPQPEKPESTLDGAAARAFYEALIGDESSAPDSQRSQTEPARERKRKKRRIMKAPAAEAVAEGASGRHGQGRSLEAEDKMTHRILRAAQEGDLPELRRLLEPHEAGGAGGNINARDAFWWTPLMCAARAGQGAAVSYLLGRGAAWVGVCELSGRDAAQLAEEAGFPEVARMVRESHGETRSPENRSPTPSLQYCENCDTHFQDSNHRTSTAHLLSLSQGPQPPNLPLGVPISSPGFKLLLRGGWEPGMGLGPRGEGRANPIPTVLKRDQEGLGYRSAPQPRVTHFPAWDTRAVAGRERPPRVATLSWREERRREEKDRAWERDLRTYMNLEF
B3: Ankyrin repeat and BTB/POZ domain-containing protein 1 (Homo sapiens), Q969K4 (parent)
chain: MDTSDLFASCRKGDVGRVRYLLEQRDVEVNVRDKWDSTPLYYACLCGHEELVLYLLANGARCEANTFDGERCLYGALSDPIRRALRDYKQVTASCRRRDYYDDFLQRLLEQGIHSDVVFVVHGKPFRVHRCVLGARSAYFANMLDTKWKGKSVVVLRHPLINPVAFGALLQYLYTGRLDIGVEHVSDCERLAKQCQLWDLLSDLEAKCEKVSEFVASKPGTCVKVLTIEPPPADPRLREDMALLADCALPPELRGDLWELPFPCPDGFNSCPDICFRVAGCSFLCHKAFFCGRSDYFRALLDDHFRESEEPATSGGPPAVTLHGISPDVFTHVLYYMYSDHTELSPEAAYDVLSVADMYLLPGLKRLCGRSLAQMLDEDTVVGVWRVAKLFRLARLEDQCTEYMAKVIEKLVEREDFVEAVKEEAAAVAARQETDSIPLVDDIRFHVASTVQTYSAIEEAQQRLRALEDLLVSIGLDC
B4: MYG1 exonuclease (Homo sapiens), Q9HB07 (parent)
chain: MGHRFLRGLLTLLLPPPPLYTRHRMLGPESVPPPKRSRSKLMAPPRIGTHNGTFHCDEALACALLRLLPEYRDAEIVRTRDPEKLASCDIVVDVGGEYDPRRHRYDHHQRSFTETMSSLSPGKPWQTKLSSAGLIYLHFGHKLLAQLLGTSEEDSMVGTLYDKMYENFVEEVDAVDNGISQWAEGEPRYALTTTLSARVARLNPTWNHPDQDTEAGFKRAMDLVQEEFLQRLDFYQHSWLPARALVEEALAQRFQVDPSGEIVELAKGACPWKEHLYHLESGLSPPVAIFFVIYTDQAGQWRIQCVPKEPHSFQSRLPLPEPWRGLRDEALDQVSGIPGCIFVHASGFIGGHRTREGALSMARATLAQRSYLPQIS
B5: Methylthioribulose-1-phosphate dehydratase (Homo sapiens), Q96GX9 (parent)
chain: MSGCDAREGDCCSRRCGAQDKEHPRYLIPELCKQFYHLGWVTGTGGGISLKHGDEIYIAPSGVQKERIQPEDMFVCDINEKDISGPSPSKKLKKSQCTPLFMNAYTMRGAGAVIHTHSKAAVMATLLFPGREFKITHQEMIKGIKKCTSGGYYRYDDMLVVPIIENTPEEKDLKDRMAHAMNEYPDSCAVLVRRHGVYVWGETWEKAKTMCECYDYLFDIAVSMKKVGLDPSQLPVGENGIV
partner: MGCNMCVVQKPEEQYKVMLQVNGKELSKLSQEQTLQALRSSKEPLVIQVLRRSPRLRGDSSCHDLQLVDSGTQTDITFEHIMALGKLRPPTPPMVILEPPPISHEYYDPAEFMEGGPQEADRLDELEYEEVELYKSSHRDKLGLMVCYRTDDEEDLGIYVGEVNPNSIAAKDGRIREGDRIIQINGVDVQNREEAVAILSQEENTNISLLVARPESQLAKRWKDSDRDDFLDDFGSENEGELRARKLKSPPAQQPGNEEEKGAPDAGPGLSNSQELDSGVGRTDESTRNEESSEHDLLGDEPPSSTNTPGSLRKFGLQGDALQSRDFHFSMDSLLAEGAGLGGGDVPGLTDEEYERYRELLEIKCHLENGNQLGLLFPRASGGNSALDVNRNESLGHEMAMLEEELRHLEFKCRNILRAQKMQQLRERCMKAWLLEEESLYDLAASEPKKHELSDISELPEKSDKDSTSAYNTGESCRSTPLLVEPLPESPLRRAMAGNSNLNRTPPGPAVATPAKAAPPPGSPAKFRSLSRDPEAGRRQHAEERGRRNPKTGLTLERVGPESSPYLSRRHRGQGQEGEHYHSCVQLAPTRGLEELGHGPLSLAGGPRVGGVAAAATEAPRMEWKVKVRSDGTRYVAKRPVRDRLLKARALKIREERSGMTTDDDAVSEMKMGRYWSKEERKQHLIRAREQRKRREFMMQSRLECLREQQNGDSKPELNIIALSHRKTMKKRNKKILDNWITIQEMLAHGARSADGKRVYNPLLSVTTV
B6: Keratin, type I cytoskeletal 20 (Homo sapiens), P35900 (parent)
chain: MDFSRRSFHRSLSSSLQAPVVSTVGMQRLGTTPSVYGGAGGRGIRISNSRHTVNYGSDLTGGGDLFVGNEKMAMQNLNDRLASYLEKVRTLEQSNSKLEVQIKQWYETNAPRAGRDYSAYYRQIEELRSQIKDAQLQNARCVLQIDNAKLAAEDFRLKYETERGIRLTVEADLQGLNKVFDDLTLHKTDLEIQIEELNKDLALLKKEHQEEVDGLHKHLGNTVNVEVDAAPGLNLGVIMNEMRQKYEVMAQKNLQEAKEQFERQTAVLQQQVTVNTEELKGTEVQLTELRRTSQSLEIELQSHLSMKESLEHTLEETKARYSSQLANLQSLLSSLEAQLMQIRSNMERQNNEYHILLDIKTRLEQEIATYRRLLEGEDVKTTEYQLSTLEERDIKKTRKIKTVVQEVVDGKVVSSEVKEVEENI
partner: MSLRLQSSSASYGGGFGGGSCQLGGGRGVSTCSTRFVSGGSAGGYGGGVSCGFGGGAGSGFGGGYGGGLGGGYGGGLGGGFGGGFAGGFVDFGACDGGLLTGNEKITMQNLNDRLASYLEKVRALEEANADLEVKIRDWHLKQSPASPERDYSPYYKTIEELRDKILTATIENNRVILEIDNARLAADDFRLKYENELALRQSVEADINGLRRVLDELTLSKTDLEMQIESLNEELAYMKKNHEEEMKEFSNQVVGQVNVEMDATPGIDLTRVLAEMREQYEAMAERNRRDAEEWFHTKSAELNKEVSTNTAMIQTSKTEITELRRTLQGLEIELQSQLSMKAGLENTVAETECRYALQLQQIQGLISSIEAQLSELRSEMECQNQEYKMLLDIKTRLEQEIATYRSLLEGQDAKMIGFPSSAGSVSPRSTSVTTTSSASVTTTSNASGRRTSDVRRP

Variants of: B1
Settings: with thiom_human TXN2, Q99757

Row | effect of a mutation on the interaction | Variant
1 | with no effect | Q621R
2 | with no effect | L625F

Variants of: B2
Settings: with pnma1_human PNMA1, Q8ND90
pnma1_human PNMA1, Q8ND90, sequence (Q8ND90 whole entry): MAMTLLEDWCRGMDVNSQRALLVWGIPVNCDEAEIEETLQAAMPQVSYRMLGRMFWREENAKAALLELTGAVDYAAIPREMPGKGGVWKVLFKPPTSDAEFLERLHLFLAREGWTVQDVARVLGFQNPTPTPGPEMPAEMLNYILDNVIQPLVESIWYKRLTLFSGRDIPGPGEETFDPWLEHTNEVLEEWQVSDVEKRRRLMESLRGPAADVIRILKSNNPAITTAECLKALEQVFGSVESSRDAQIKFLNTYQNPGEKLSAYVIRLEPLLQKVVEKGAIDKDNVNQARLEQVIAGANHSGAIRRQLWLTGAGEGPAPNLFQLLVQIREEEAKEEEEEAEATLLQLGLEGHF

Row | effect of a mutation on the interaction | Variant
3 | with no effect | R41L

Variants of: B2
Settings: with tri23_human TRIM23, P36406
tri23_human TRIM23, P36406, sequence (P36406 whole entry): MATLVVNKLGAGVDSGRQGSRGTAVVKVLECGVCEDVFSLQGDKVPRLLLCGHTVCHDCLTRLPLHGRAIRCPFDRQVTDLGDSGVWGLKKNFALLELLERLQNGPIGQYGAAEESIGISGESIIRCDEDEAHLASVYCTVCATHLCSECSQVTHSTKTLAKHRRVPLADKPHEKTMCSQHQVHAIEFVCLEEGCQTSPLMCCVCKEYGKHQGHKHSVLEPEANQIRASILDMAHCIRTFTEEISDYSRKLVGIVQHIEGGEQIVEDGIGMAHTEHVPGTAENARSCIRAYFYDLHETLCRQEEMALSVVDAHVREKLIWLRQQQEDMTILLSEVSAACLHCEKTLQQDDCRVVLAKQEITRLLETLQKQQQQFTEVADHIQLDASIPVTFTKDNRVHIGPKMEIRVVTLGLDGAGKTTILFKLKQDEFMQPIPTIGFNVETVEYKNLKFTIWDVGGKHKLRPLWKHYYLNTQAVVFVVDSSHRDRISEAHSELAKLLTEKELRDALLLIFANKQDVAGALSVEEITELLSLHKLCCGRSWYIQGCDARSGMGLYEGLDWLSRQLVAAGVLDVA

Row | effect of a mutation on the interaction | Variant
4 | with no effect | D56E

Variants of: B3
Settings: with ef1d_human EEF1D

Row | effect of a mutation on the interaction | Variant
5 | with no effect | R386H

Variants of: B3
Settings: with ef1a2_human EEF1A2, Q05639
ef1a2_human EEF1A2, Q05639, sequence (Q05639 whole entry): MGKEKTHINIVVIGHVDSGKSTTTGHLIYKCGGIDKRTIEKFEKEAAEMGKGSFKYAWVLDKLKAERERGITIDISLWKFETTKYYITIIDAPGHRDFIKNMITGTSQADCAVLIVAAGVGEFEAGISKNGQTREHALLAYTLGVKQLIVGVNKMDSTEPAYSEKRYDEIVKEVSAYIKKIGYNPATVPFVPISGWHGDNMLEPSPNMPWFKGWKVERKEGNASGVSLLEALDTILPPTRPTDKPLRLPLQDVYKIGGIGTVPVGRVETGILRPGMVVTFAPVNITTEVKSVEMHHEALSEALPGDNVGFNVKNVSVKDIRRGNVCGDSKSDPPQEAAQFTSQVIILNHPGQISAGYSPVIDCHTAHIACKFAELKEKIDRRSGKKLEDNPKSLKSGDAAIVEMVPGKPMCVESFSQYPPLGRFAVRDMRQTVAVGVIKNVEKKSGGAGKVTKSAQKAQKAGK

Row | effect of a mutation on the interaction | Variant
6 | with no effect | R386H

Variants of: B3
Settings: with cul3_human CUL3, Q13618

Row | effect of a mutation on the interaction | Variant
7 | with no effect | R386H

Variants of: B4
Settings: with atrap_human AGTRAP

Row | effect of a mutation on the interaction | Variant
8 | with no effect | R188Q
9 | with no effect | R243Q

Variants of: B5
Settings: with pdzd4_human PDZD4, Q76G19

Row | effect of a mutation on the interaction | Variant
10 | with no effect | G111A
11 | with no effect | M181V

Variants of: B6
Settings: with KRT13, P13646

Row | effect of a mutation on the interaction | Variant
12 | with no effect | S129N
13 | with no effect | S309Y
